Reference: patent US20160257732A1 (published 2016)

How the values were obtained:
Test in all cases: cell-based or functional assay
[1] = biological target: HA of A/Fort Monmouth/1/47 (H1N1) (influenza A virus)
[2] = biological target: HA of A/New Jersey/8/76 (H1N1) (influenza A virus)
[3] = biological target: HA of A/Kawasaki/9/86 (H1N1) (influenza A virus)
[4] = biological target: HA of ca A/Texas/36/91 (H1N1) (influenza A virus)
[5] = biological target: HA of ca A/Beijing/262/95 (H1N1) (influenza A virus)
[6] = biological target: HA of ca A/New Caledonia/20/99 (H1N1) (influenza A virus)
[7] = biological target: HA of ca A/swine/Missouri/06 (H2N3) (influenza A virus)
[8] = biological target: HA of ca A/Vietnam/1203/04 (H5N1) (influenza A virus)
[9] = biological target: HA of ca A/Hong Kong/213/03 (H5N1) (influenza A virus)
[10] = biological target: HA of ca A/teal/Hong Kong/W312/97 (H6N1) (influenza A virus)
[11] = biological target: HA of ca A/chicken/Hong Kong/G9/97 (H9N2) (influenza A virus)
[12] = biological target: HA of A/Hong Kong/8/68 (H3N2) (influenza A virus)
[13] = biological target: HA of A/Victoria/3/75 (H3N2) (influenza A virus)
[14] = biological target: HA of ca A/Sydney/5/97 (H3N2) (influenza A virus)
[15] = biological target: HA of ca A/Panama/2007/99 (H3N2) (influenza A virus)
[16] = biological target: HA of A/Wyoming/03/03 (H3N2) (influenza A virus)
[17] = biological target: HA of A/Wisconsin/67/05 (H3N2) (influenza A virus)
[18] = biological target: HA of ca A/Perth/16/09 (H3N2) (influenza A virus)
[19] = biological target: HA of ca A/Netherlands/219/03 (H7N7) (influenza A virus)
[20] = biological target: HA of ca A/Brit. Columbia/CN-6/04 (H7N3-LP) (influenza A virus)

Binder | Neutralization IC50, H1-FM47 [1] [µg/mL] | Neutralization IC50, H1-NJ76 [2] [µg/mL] | Neutralization IC50, H1-Kaw86 [3] [µg/mL] | Neutralization IC50, H1-TX91 [4] [µg/mL] | Neutralization IC50, H1-BJ95 [5] [µg/mL] | Neutralization IC50, H1-Ncal99 [6] [µg/mL] | Neutralization IC50, H2-MO06 [7] [µg/mL] | Neutralization IC50, H5-VM04 [8] [µg/mL] | Neutralization IC50, H5-HK03 [9] [µg/mL] | Neutralization IC50, H6-HK97 [10] [µg/mL] | Neutralization IC50, H9-HK97 [11] [µg/mL] | Neutralization IC50, H3-HK68 [12] [µg/mL] | Neutralization IC50, H3-Vic75 [13] [µg/mL] | Neutralization IC50, H3-Syd97 [14] [µg/mL] | Neutralization IC50, H3-Pa99 [15] [µg/mL] | Neutralization IC50, H3-Wy03 [16] [µg/mL] | Neutralization IC50, H3-WI05 [17] [µg/mL] | Neutralization IC50, H3-Perth09 [18] [µg/mL] | Neutralization IC50, H7-NLD03 [19] [µg/mL] | Neutralization IC50, H7-BC04 [20] [µg/mL]
Antibody 5 (antibody, V domains shown) VH: QVQLQQSGPGLVKPSQTLSLTCAISGDRVSSNSAVWNWIRQSPSRGLEWLGRTYYRSKWYYDYAESVKSRIVIDPDTSKNQVSLQLNSVTPEDSAIYYCARGGHITVFGLNIDAYDIWGQGAMVTVSS VL: DIQMTQSPSSLSASVGDRVTISCRAQSLSSYLHWYQQKPGQPPKLLIYAATTLQSGVPSRFSGSGSGTDFTLTISTFQAEDVATYYCQQSRTFGQGTKVEIK | 0.86 | 1.64 | 1.01 | 0.76 | 5.06 | 0.85 | 2.38 | 2.6 | 1.18 | 2.27 | 2.43 | 0.39 | 0.57 | 3.03 | 16.7 | 0.77 | 2.83 | 2.22 | 4.14 | 5.35
Antibody 10 (antibody, V domains shown) VH: QVQLQQSGPGLVKPSQTLSLTCAISGDSVSSNSATWNWIRQSPSRGLEWLGRTYYRSKWYNDYADFLKRRITINPDTSNNEVSLRLTSVTPDDTALYYCARGGHITVFGVNIDAFDVWGQGTMVTVSS VL: DIQMTQSPSSLSASVGDRITISCRTSQSLRSYLHWYQQKPGKAPKLLIYASSTLQSGVPSRFSGSGSGTDFTLTISNLQPEDFATYYCQLSRTFGQGTKVEIK | 1.11 | 0.15 | 1.62 | 0.48 | 4.46 | 1.26 | 1.04 | 2.21 | 1.6 | 1.05 | 1.76 | 0.85 | 0.91 | 9.29 | 18.7 | 1.52 | 4.46 | 2.56 | 3.8 | 3.59
